Test system: MS2 coat protein
Test: apparent KD of MS2 coat protein; designed switch direction (-1 OFF switch, 1 ON switch): -1; higher = weaker reporter binding
Outline: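 The buffer was Tris-HCl pH 7.5 with KCl, MgCl2, BSA, DTT, tRNA and Tween-20. In it, SNAP-549-labelled MS2 coat protein was titrated in doubling steps from 0.7 or 1.5 nM to 3 µM over chip-bound RNA switches transcribed by stalled E. coli RNA polymerase on Illumina chips. Apparent KD is the per-design median over clusters of curve fits to normalised fluorescence.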

[1] = input ligand: microRNA oligo, concentration not stated

Sequence: AAAUCGGUAGAGGAUAUUGUACAGGAAACGGUGCGAGAAGGUUGCACAUGAGGAUCACCCAUGUUUAAUUGCGA [EX6 #49] (Eterna round: R97, puzzle: Exclusion 6)
- apparent KD of MS2 coat protein (input ligand: FMN 200 uM): 43.1 nM
- apparent KD of MS2 coat protein (input ligand: none): 28.5 nM

Sequence: AAUUAUUGAUGAGGAUAUUGUGGUGAAACACGACAAGAAGGCAUUAUACACAUGAGGAUCACCCAUGUGAGCCUGAUGCAUAUA [Ex NG1 #59] (Eterna round: R96, puzzle: Exclusion NG 1)
- apparent KD of MS2 coat protein [1]: 12.4 nM

Sequence: GGUGAGCUACUAGGAUAUCUAGGCUAUUUACCUAGAGAAGGAGUCGCCUUCCCUCGCGUAGAUACAUGAGGAUCACCCAUGUAU [Eternabot solution 50] (Eterna round: R96, puzzle: Exclusion NG 1)
- apparent KD of MS2 coat protein (input ligand: FMN 200 uM): 16.9 nM
- apparent KD of MS2 coat protein [1]: 14.1 nM
- apparent KD of MS2 coat protein (input ligand: none): 18.1 nM

Sequence: CCGUUCCGUGUAGGAUAUUGGCCUUCCUCGGGCCGAGAAGGACAUGAGGAUCACCCAUGUAUGCUAUUAUCGCGCGUGGCGCCC [Design 98] (Eterna round: R96, puzzle: Exclusion NG 1)
- apparent KD of MS2 coat protein (input ligand: FMN 200 uM): 129 nM
- apparent KD of MS2 coat protein [1]: 32.4 nM
- apparent KD of MS2 coat protein (input ligand: none): 39.8 nM

Sequence: GCGAAAGCAAGCAGGUGAAACAUGAGGAUCACCCAUGUCCUCAUUUGCUCGUCUUAUAAGCUAUGCGAAAGCAUAGC [Sensor 3, v1 - 3] (puzzle: Sensor v3, turn-off variant 1)
- apparent KD of MS2 coat protein (Eterna round: R95, input ligand: FMN 200 uM): 13.7 nM
- apparent KD of MS2 coat protein (Eterna round: R95, input ligand: microRNA oligo, concentration not stated): 113 nM
- apparent KD of MS2 coat protein (Eterna round: R95, input ligand: none): 12.5 nM

Sequence: AGAACUCUAGUAGGAUAUGUCGGAUAUGUUGUUGAGGUUCACCCAACGACGUCAAUGACAGAGGGACAGAAGGACUCCUGUUCC [pwkr exNG2 2xFMN 1xF5.9] (Eterna round: R96, puzzle: Exclusion NG 2)
- apparent KD of MS2 coat protein (input ligand: FMN 200 uM): 873 nM
- apparent KD of MS2 coat protein [1]: 506 nM
- apparent KD of MS2 coat protein (input ligand: none): 1110 nM

Sequence: UCUCAGUCAGGAUAUCGUUAAUUUAAUUGUUUGUAUUAGUUCGAGAAGGGACAUGAGGAUCACCCAUGUACUCU [Ex4 #18] (Eterna round: R97, puzzle: Exclusion 4)
- apparent KD of MS2 coat protein (input ligand: FMN 200 uM): 29.8 nM
- apparent KD of MS2 coat protein (input ligand: none): 18.8 nM

Sequence: AUACCACGAGGAUAUCGUCUAUUCCACAUGAGGAUCACCCAUGUUAUCCAUGUUUCGUUUCGAGAAGGCGUGGGUU [JR_E5_Sub074] (Eterna round: R96, puzzle: Exclusion 5)
- apparent KD of MS2 coat protein (input ligand: FMN 200 uM): 50.8 nM
- apparent KD of MS2 coat protein [1]: 38.2 nM
- apparent KD of MS2 coat protein (input ligand: none): 51.6 nM

Sequence: AACAAUACUUACAUAAUAAGGCUUUUCAGGUCGGGUACCACAUGAGGAUCACCCAUGUAGCAGCCUAGGGAAUGAUA [JR_Sensorv2_tov2_Sub1233] (Eterna round: R96, puzzle: Sensor v2, turn-off variant 2)
- apparent KD of MS2 coat protein (input ligand: FMN 200 uM): 49.2 nM
- apparent KD of MS2 coat protein [1]: 36.4 nM
- apparent KD of MS2 coat protein (input ligand: none): 46.1 nM

Sequence: AGUCCUGAAGUUAGGAUAUGAAGUAUCACUGCACUUCAGAAGGGACUUGAGGAUCACCCAAGUAGCCGUGAGGG [salish99_bmod_ex4_r4_002] (Eterna round: R97, puzzle: Brourd's mod of Exclusion 4)
- apparent KD of MS2 coat protein (input ligand: FMN 200 uM): 128 nM
- apparent KD of MS2 coat protein (input ligand: none): 70.6 nM

Sequence: AUAAUGUGAGGAUAUCGAGACUACUGCCUCGGCAGUAGUCUCGAGAAGGCACAUGAGGAUCACCCAUGUGAUCA [E4/2-A2] (Eterna round: R97, puzzle: Exclusion 4)
- apparent KD of MS2 coat protein (input ligand: FMN 200 uM): 79 nM
- apparent KD of MS2 coat protein (input ligand: none): 1190 nM

Sequence: AUAAAACGAGGAUAUGCUGGGCUUCUGUGAUGCAUAUGCUCACAUGAGGAUCACCCAUGUAGAAGGUGUAAAAU [Laaceve] (Eterna round: R96, puzzle: Exclusion 2)
- apparent KD of MS2 coat protein (input ligand: FMN 200 uM): 389 nM
- apparent KD of MS2 coat protein [1]: 221 nM
- apparent KD of MS2 coat protein (input ligand: none): 331 nM

Sequence: GCUAGGAAUGUCAGGAUAUGCUGAUCCUUGGAUCAGCAGAAGGGACAUGAGGAUCACCCAUGUGCUAACCUAGC [Mat - Exclusion 4 - JL Mod - D6] (Eterna round: R97, puzzle: Brourd's mod of Exclusion 4)
- apparent KD of MS2 coat protein (input ligand: FMN 200 uM): 177 nM
- apparent KD of MS2 coat protein (input ligand: none): 30.8 nM
